pKd: −log10 of the molar value. Read-outs that look alike come from different tables or passages of the source.
Tested on: Immunoglobulin E (IgE) (Homo sapiens), P01854-1
Assay: filter
[1] = 2'-OMe/2'-deoxy mix, 3:21 pair changed, DPBS Mg/Ca, 0.1 mg/mL BSA, RT

Immunoglobulin E (IgE) (Homo sapiens), P01854-1, sequence (P01854 other isoform, or with tags, fused parts or gaps): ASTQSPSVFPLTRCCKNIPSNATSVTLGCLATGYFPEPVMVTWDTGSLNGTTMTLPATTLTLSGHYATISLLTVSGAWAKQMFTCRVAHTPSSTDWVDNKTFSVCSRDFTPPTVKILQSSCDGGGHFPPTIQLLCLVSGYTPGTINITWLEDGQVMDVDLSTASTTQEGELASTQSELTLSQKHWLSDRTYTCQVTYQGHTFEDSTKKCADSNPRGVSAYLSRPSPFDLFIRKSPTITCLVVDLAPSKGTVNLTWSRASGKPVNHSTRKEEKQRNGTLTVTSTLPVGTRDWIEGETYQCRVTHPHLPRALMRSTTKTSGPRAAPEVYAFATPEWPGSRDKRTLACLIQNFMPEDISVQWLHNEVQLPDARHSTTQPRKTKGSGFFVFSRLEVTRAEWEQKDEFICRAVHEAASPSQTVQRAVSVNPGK

Sequence: AGCCUGGGGACCCAUGGGGGGCU [ARC1255]
- pKd (2'-OMe G9 and all C,U, rest 2'-deoxy, 3' idT [2'-OMe at 3,4,5,9,11,12,13,15,22,23, 3'-idT at 24], DPBS Mg/Ca, 0.1 mg/mL BSA, RT): 8.10

Sequence: GGGAAAAGCGAAUCAUACACAAGAGUGCAAGAAGUGCAUUGCUGUGUCUGGUUCUUGGCGAUGUGCUCCGCCAGAGACCAACCGAGAA [rRfY clone SEQ 17]
- binding signal (2'-F C,U, ratio bound +/- 20 nM IgE): 0.76

Sequence: GGGAGAGGAGAGAACGUUCUACAGGCAGUUCUGGGGACCCAUGGGGGAAGUGCGCUGUCGAUCGAUCGAUCGAUG [ARC1991]
- pKd (dRmY: 2'-deoxy A,G, 2'-OMe C,U, error 2, dPBS Ca/Mg + 0.1 mg/mL BSA, RT, 87.7 nM with 1 mg/mL tRNA + ssDNA competitor (p280)): 8.70

Sequence: GGGGCACATTCATCCGTCCCTCCTAGTGGTGTGCTCC [DNA clone SEQ 128]
- pKd: 9.30

Sequence: AGCCUGGGGACCCAUGGGGGGCU [ARC3262]
- pKd (ARC1666 pattern with 2'-OMe G8, 3' idT [dI (written G) at 16,18,20, 2'-OMe 1-5,7,8,10-15,17,22,23, deoxy 6,9,16,18-21, PS 8/9,15/16,16/17,18/19,20/21, 3' inverted dT left out], dPBS Ca/Mg + BSA, RT): 9.80

Sequence: AGCCUGGGGACCCAUGGGGGGCU [ARC1264]
- pKd (2'-OMe A1,G2,G20,G21 and all C,U, rest 2'-deoxy as printed, 3' idT [2'-OMe A1,G2,C3,C4,U5,C11,C12,C13,U15,G20,G21,C22,U23, rest 2'-deoxy, 3' inverted dT at 24], DPBS Mg/Ca, 0.1 mg/mL BSA, RT): 7.33

Sequence: AGUCUGGGGACCCAUGGGGGACU [ARC1247]
- pKd [1]: 6.72

Sequence: AGGCUGGGGACCCAUGGGGGCCU [ARC1244]
- pKd (dRmY, dPBS Ca/Mg + BSA, RT): 6.35

Sequence: GGGGCTACTTTATCCGTTCCTCCTAGTGGGTAGCCCCN [ARC1297]
- pKd (2'-OMe at 33, 3' idT, DPBS Mg/Ca, BSA): 9.10

Sequence: GGGGCTACTTTATCCGTTCCTCCTAGTGGGTAGCCCCT [ARC1268]
- pKd (2'-OMe at 4, 3' idT [4 (2'-OMe G), 38 (3' inverted dT)], DPBS Mg/Ca, BSA): 9.70

Sequence: GGGGCTACTTUATCCGTTCCTCCTAGTGGGTAGCCCC [ARC1275]
- pKd (2'-OMe U at 11, 3' idT [11 (2'-OMe U), 38 (3' inverted dT)], DPBS Mg/Ca, BSA): 9.52

Sequence: AGCCUGGGGACCCAUGGGGGGCU [ARC906]
- pKd (dRmY, 7-deaza-dG at G9 [7-deaza-dG: 9, 2'-OMe: 3-5,11-13,15,22,23, deoxy: all A,G], dPBS Ca/Mg + BSA, RT): 7.06

Sequence: GGGGCTACTTTATCCGTTCCTCCTAGTGGGTAGCCCCT [ARC1302]
- pKd (DNA with 2'-OMe G1-G4,A7,G30,A32,G33, 3' idT [2'-OMe G1-G4, A7, G30, A32, G33, 3' inverted dT at 38], dPBS Ca/Mg + BSA): 7.72

Sequence: GGGGCTACTTTATCCGTTCCTCCTAGTGGGTAGCCCCT [ARC1298]
- pKd (2'-OMe at 34, 3' idT [2'-OMe: 34, 38 = 3' inverted dT], DPBS Mg/Ca, BSA): 9.40

Sequence: GGGGCTACTTTATCCGTTCCTCCTAGTGGGTAGCCCC [ARC1395]
- pKd (2'-OMe at 1-4,7,33-37, PS 12-13, 3' idT [2'-OMe at 1-4,7,33-37, PS linkage 12-13 (internal N = PS, not a base), 3' inverted dT cap (terminal N, left out)], DPBS Mg/Ca, BSA): 8.24

Sequence: GGGGCTACTTTATCCGTTCCTCCTAGTGGGTAGCCCCT [ARC1267]
- pKd (2'-OMe at 3, 3' idT [3 (2'-OMe G), 38 (3' inverted dT)], DPBS Mg/Ca, BSA): 10.00

Sequence: AGCCUGNGGNGACCCAUNNNGNNGNNGCUN [ARC2974]
- pKd (ARC1666 chemistry + PS 6-7, 3' idT, DPBS Mg/Ca, BSA, RT): 10.15

Sequence: GGGGCTACTTTATCCGTTCCTCCTAGTGGGTAGCCCC [ARC1392]
- pKd (2'-OMe at 1-4,7,33-37, PS 9-10, 3' idT [2'-OMe at 1-4,7,33-37, PS linkage 9-10 (internal N = PS, not a base), 3' inverted dT cap (terminal N, left out)], DPBS Mg/Ca, BSA): 8.52

Sequence: GGGGCTACTTTATCCGTTCCTCCTAGTGGGTAGCCCCT [ARC1304]
- pKd (2'-OMe at 1-4,34-37, 3' idT [2'-OMe: 1-4,34-37, 38 = 3' inverted dT], DPBS Mg/Ca, BSA): 9.22

Sequence: GGGGCTACTTTATCCGTTCCTCCTAGTGGGTAGCCCC [ARC1398]
- pKd (2'-OMe at 1-4,7,33-37, PS 15-16, 3' idT [2'-OMe at 1-4,7,33-37, PS linkage 15-16 (internal N = PS, not a base), 3' inverted dT cap (terminal N, left out)], DPBS Mg/Ca, BSA): 8.57

Sequence: GGGAGAGGAGAGAACGUUCUACGAUCUGGGCGAGCCAGUCUGACUGAGGAAGCGCUGUCGAUCGAUCGAUCGAUGAAGGGCG [rRmY clone SEQ 56]
- pKd (2'-OMe C,U, 2'-OH A,G, DPBS, 0.1 mg/mL tRNA, RT): 6.30

Sequence: GGAAUCAUACACAAGACGUCAGUAAGAUUGAGUGUAUGGUUCC [rRfY minimer SEQ 95]
- pKd (2'-F C and U, KD2 117.2 nM, 1xSHMCK + tRNA): 8.35

Sequence: AGCCUGGGGACCCAUGGGGGG [ARC2345]
- pKd (ARC1666 pattern without 3' idT [dI (written G) at 16,18,20, 2'-OMe 1-5,7,10-15,17, deoxy 6,8,9,16,18-21, PS 8/9,15/16,16/17,18/19,20/21, no 3' idT], dPBS + BSA, RT): 7.53

Sequence: AGCCUGGGGACCCAUGGGGGGCU [ARC1334]
- pKd (2'-OMe G2,G7,A10,A14,G17 and all C,U, rest 2'-deoxy, 3' idT [2'-OMe G2,C3,C4,U5,G7,A10,C11,C12,C13,A14,U15,G17,C22,U23, 3' inverted dT at 24], DPBS Mg/Ca, 0.1 mg/mL BSA, RT): 9.52

Sequence: GGGCAACTTTATCCGTTCCTCTTAGTGGGTTGCCCC [DNA clone SEQ 139]
- pKd: 9.40

Sequence: AGCCUGGGGACCCAUGGGGGGCU [ARC912]
- pKd (dRmY, 7-deaza-dG at G21 [7-deaza-dG: 21, 2'-OMe: 3-5,11-13,15,22,23, deoxy: all A,G], dPBS Ca/Mg + BSA, RT): 8.05

Sequence: AGCCUGGGNGACCCAUNNNGNNGNNGNCUN [ARC2340]
- pKd (ARC1666 pattern plus PS between G21 and C22, 3' idT, dPBS Ca/Mg + BSA, RT): 10.10

Sequence: AGCCUGGGGACCCAUGGGGGGCU [ARC1258]
- pKd (2'-OMe C,U and G16, other A,G deoxy, 3' idT [2'-OMe: 3,4,5,11,12,13,15,16,22,23, 2'-deoxy: 1,2,6,7,8,9,10,14,17,18,19,20,21, 24 = 3' inverted dT], dPBS Ca/Mg + BSA, RT): 7.82

Sequence: GGGGCTACTTTATCCGTTCCTCCTAGTGGGTAGCCCC [ARC1406]
- pKd (2'-OMe at 1-4,7,33-37, PS 23-24, 3' idT [2'-OMe at 1-4,7,33-37, PS 23-24, 3' idT cap after 37 (left out)], DPBS Mg/Ca, BSA): 8.49

Sequence: GGGGTATGTTGATCCGTCCCTCCTAGTGGCATGCCCC [DNA clone SEQ 133]
- pKd: 9.15

Sequence: AGCCUGGGNGANCCCAUNNNGNNGNNGCUN [ARC2977]
- pKd (ARC1666 chemistry + PS 10-11, 3' idT, DPBS Mg/Ca, BSA, RT): 10.30

Sequence: GGGAGAGGAGAGAACGUUCUACGAGCAGCCCUGGGGCCCGGAGGGGGAUGGUCGCUGUCGAUCGAUCGAUCGAUG [ARC1993]
- pKd (dRmY: 2'-deoxy A,G, 2'-OMe C,U, error 4, dPBS Ca/Mg + BSA, RT): 8.05

Sequence: GGGGCTACTTTATCCGTTCCTCCTAGTGGGTAGCCCC [ARC1394]
- pKd (2'-OMe at 1-4,7,33-37, PS 11-12, 3' idT [2'-OMe at 1-4,7,33-37, PS linkage 11-12 (internal N = PS, not a base), 3' inverted dT cap (terminal N, left out)], DPBS Mg/Ca, BSA): 8.09

Sequence: AGCCUGGGNGACCCAUNNNGNNGNNGCUN [ARC3264]
- pKd (ARC1666 chemistry with 2'-OMe I16, 3' idT, DPBS Mg/Ca, BSA, RT): 9.44

Sequence: AGACUGGGGACCCAUGGGGGUCU [ARC1248]
- pKd [1]: 7.42

Sequence: GGGCTACTTTATCCGTTCCTCCTAGTGGGTAGCCCT [ARC1306]
- pKd (2'-OMe stem block as printed in Table 18, 3' idT [2'-OMe: stem block (exact positions not given in the material), 36 = 3' inverted dT], DPBS Mg/Ca, BSA): 7.85

Sequence: GGGCTACTTTATCCGTCCCTCCTAGTGGGTAGCCCC [DNA clone SEQ 140]
- pKd: 9.70

Sequence: GGGGCTACTTTATCCGTTCCTCCTAGTGGGTAGCCCCT [ARC1272]
- pKd (2'-OMe at 8, 3' idT [8 (2'-OMe C), 38 (3' inverted dT)], DPBS Mg/Ca, BSA): 9.70

Sequence: AGCCUGGGGACCCAUGGGGGGCU [ARC3266]
- pKd (ARC1666 pattern with 2'-OMe G8 and 2'-OMe I16, 3' idT [inosine (written G) at 16 (2'-OMe I),18,20 (dI), 2'-OMe 1-5,7,8,10-17,22,23, deoxy 6,9,18-21, PS 8/9,15/16,16/17,18/19,20/21, 3' inverted dT left out], dPBS Ca/Mg + BSA, RT): 8.89

Sequence: GGGGCAGCTTTATCCGTTCCTCCTAGTGGGCTGCCTC [DNA clone SEQ 131]
- pKd: 9.52

Sequence: GGGGCTACTTTATCCGTTCCTCCTAGTGGGTAGCCCCN [ARC1296]
- pKd (2'-OMe at 32, 3' idT, DPBS Mg/Ca, BSA): 8.92

Sequence: GGGGCTACTTTATCCGTTCCTCCTAGTGGGTAGCCCC [ARC1400]
- pKd (2'-OMe at 1-4,7,33-37, PS 17-18, 3' idT [2'-OMe at 1-4,7,33-37, PS linkage 17-18 (internal N = PS, not a base), 3' inverted dT cap (terminal N, left out)], DPBS Mg/Ca, BSA): 8.62

Sequence: GGGGCTACTTTATCCGTTCCTCCTAGTGGGTAGCCCC [ARC1408]
- pKd (2'-OMe at 1-4,7,33-37, PS 25-26, 3' idT [2'-OMe at 1-4,7,33-37, PS 25-26, 3' idT cap after 37 (left out)], DPBS Mg/Ca, BSA): 9.00

Sequence: AGCCUGGGGACCCAUGGGGGGCU [ARC902]
- pKd (dRmY (2'-OMe C,U), 7-deaza-dG2 [7-deaza-dG at 2, 2'-OMe C3,C4,U5,C11,C12,C13,U15,C22,U23, A,G 2'-deoxy], DPBS Mg/Ca, 0.1 mg/mL BSA, RT): 8.05

Sequence: GGGGCTACTTTATCCGTTCCTCCTAGTGGGUAGCCCCN [ARC1295]
- pKd (2'-OMe U at 31, 3' idT, DPBS Mg/Ca, BSA): 8.52

Sequence: AGCCUGGGNGACCCAUNNNGNNGNNGCUNN [ARC2369]
- pKd (ARC1666 pattern, 3'-NH-PEG20K, no idT, dPBS Ca/Mg + BSA, RT): 10.52

Sequence: GGGAGAGGAGAGAACGUUCUACAUUGUGCUCCUGGGGCCCAGUGGGGAGCCACGCUGUCGAUCGAUCGAUCGAUG [ARC1995]
- pKd (dRmY: 2'-deoxy A,G, 2'-OMe C,U, error 2, dPBS Ca/Mg + BSA, RT): 8.40

Sequence: GGGGCTACTTCATCCGTCCCTCCTAGTGGGTAGCCCC [ARC478]
- pKd: 9.40

From patent US20090018093
